From patent US20220048996A1 (F STAR BETA, published 2022)
Positions count from the first letter of the chain named.

Key:
[1] = molecular target: T1, cynomolgus CD137 expressed on DO11.10 cells (DO11.10-cCD137) (cynomolgus monkey, UniProt Q07011 24-255 (human entry)); assay: flow cytometry on DO11.10 cells expressing the target
T1 chain: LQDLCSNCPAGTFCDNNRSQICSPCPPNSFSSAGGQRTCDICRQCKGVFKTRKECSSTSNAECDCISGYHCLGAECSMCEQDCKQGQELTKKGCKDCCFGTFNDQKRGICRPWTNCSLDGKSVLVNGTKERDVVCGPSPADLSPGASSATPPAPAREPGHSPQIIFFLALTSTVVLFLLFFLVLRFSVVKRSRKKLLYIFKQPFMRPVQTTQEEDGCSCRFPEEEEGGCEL
Experimental: (§1) 50 μl of the antibody dilutions were added to the wells containing cells (final volume 100 μl) and incubated at 4° C. for 1 hour. […] The plates were washed and resuspended in 100 μl of PBS containing DAPI (Biotium, cat no 40043) at 1 μg/ml. The plates were analysed using a Canto II flow cytometer (BD Bioscience) and the data analysed using FlowJo. Dead cells were identified by their higher fluorescence on the UV (405 nm/450/50) channel and excluded from analysis. […] The GMFI data was fit using log (agonist) vs response (three parameters) in Graph Pad Prism Software to generate EC₅₀ values.

[2] = molecular target: T2, human CD137 expressed on DO11.10 cells (DO11.10-hCD137) (human, UniProt Q07011 24-255); assay: as above
T2 construct: also called CD137 on human T cells
Experimental: as §1

[3] = molecular target: T3, cynomolgus OX40 expressed on DO11.10 cells (DO11.10-cOX40) (cynomolgus, UniProt P43489 29-277 (human entry)); assay: as above
T3 chain: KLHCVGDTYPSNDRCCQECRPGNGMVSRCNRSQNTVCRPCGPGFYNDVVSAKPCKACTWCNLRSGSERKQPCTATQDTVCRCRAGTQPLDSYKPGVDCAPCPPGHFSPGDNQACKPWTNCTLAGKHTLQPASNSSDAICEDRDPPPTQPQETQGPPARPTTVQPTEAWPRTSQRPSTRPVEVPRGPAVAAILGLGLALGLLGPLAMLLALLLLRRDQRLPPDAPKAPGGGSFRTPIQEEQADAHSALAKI
Experimental: as §1

[4] = molecular target: T4, human OX40 expressed on DO11.10 cells (DO11.10-hOX40) (human, UniProt P43489 29-277); assay: as above
T4 construct: Also used here for OX40 on primary human T cells in the functional rows; also called human OX40 receptor; OX40 on human T cells
T4 sequence: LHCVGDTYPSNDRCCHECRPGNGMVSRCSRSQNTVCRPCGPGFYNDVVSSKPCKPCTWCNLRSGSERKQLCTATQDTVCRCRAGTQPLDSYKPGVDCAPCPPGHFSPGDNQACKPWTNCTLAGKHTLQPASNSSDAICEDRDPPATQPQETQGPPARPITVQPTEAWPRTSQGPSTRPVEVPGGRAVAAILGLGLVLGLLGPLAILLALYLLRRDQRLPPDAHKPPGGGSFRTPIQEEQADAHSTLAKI
Experimental: as §1

hOX40-mFc = molecular target: T5, hOX40-mFc (human); assay: SPR, antibody captured via anti-human Fab, dimeric antigen flowed, 1:1 fit
T5 construct: Dimeric; also called human OX40-mFc
T5 chain: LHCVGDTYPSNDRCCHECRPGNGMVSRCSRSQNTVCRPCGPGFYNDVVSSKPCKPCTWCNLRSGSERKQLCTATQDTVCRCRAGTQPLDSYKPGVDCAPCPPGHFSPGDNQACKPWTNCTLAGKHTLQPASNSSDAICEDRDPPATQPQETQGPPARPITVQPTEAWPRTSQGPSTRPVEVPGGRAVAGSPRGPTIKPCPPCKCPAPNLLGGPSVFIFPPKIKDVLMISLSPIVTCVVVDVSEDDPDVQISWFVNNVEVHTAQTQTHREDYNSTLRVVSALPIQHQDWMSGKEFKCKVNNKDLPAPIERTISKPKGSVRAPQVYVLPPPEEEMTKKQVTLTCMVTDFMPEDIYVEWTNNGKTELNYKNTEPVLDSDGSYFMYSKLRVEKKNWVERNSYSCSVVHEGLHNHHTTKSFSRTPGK
Experimental: (§2) For OX40 affinity determination a Biacore CM5 chip was coated with anti-human Fab using a Human Fab Capture Kit (GE Healthcare 28958325) according to manufacturer's conditions, to a surface density of approximately 8000 RU. […] The association time was 2 min and the dissociation time was 8 min. Running buffer was HBS-EP. Flow cells were regenerated by injecting glycine-HCl at pH 2.1 at a flow rate of 30 μl/min for 30 seconds.
(§3) The binding kinetics were fit with a 1:1 Langmuir model to generate binding association (kₐ) and dissociation (kd) rates. Equilibrium binding constants (KD) were calculated by dividing the dissociation rate by the association rate for each sample. Data analysis was performed with BiaEvaluation software version 3.2.

cOX40-mFc = molecular target: T6, cOX40-mFc (cynomolgus); assay: as above
T6 construct: Dimeric; also called cyno OX40-mFc
T6 chain: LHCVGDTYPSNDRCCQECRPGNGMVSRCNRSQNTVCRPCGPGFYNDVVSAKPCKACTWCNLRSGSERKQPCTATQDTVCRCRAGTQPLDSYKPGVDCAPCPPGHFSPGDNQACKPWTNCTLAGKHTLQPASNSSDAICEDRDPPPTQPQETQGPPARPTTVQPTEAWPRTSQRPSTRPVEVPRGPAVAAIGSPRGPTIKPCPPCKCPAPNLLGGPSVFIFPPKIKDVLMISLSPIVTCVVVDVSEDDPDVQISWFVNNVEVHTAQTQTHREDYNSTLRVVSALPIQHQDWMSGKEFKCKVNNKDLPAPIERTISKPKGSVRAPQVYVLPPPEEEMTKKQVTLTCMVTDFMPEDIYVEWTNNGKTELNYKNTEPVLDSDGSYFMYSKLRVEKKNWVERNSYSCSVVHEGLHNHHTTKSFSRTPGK
Experimental: as §2, §3

[5] = molecular target: T2, human CD137 expressed on DO11.10 cells …; assay: cell-based or functional assay
Target sequence in this assay (Q07011 24-255): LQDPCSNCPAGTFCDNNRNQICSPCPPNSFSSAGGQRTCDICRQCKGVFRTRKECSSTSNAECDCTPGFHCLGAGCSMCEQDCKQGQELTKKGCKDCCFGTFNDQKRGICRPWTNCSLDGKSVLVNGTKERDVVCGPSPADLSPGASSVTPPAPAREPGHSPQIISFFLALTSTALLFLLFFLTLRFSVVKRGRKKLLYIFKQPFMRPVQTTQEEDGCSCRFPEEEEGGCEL

[6] = molecular target: T4, human OX40 expressed on DO11.10 cells …; assay: cell-based or functional assay
hCD137-mFc-Avi = molecular target: T7, hCD137-mFc-Avi (human); assay: SPR, antibody captured via anti-human Fc, dimeric antigen flowed, 1:1 fit
T7 construct: Dimer; a biotinylated version was used where the text says so; also called human CD137-mFc-Avi; hCD137-mFc-Avi-Bio
Experimental: (§4) For CD137 affinity determination, a Biacore CM5 chip (GE Healthcare) was coated with anti-human Fc using a Human Antibody Capture Kit (GE Healthcare) according to manufacturer's conditions, to a surface density of approximately 4000 RU. […] Human or cynomolgus CD137 (hCD137-mFc-Avi or cCD137-mFc-Avi) was flowed over at a range of concentrations in a three-fold dilution series starting at 200 nM, at a flow rate of 70 μl/min. The association time was 2 min and the dissociation time was 8 min. Running buffer was HBS-EP (GE Healthcare BR100188). Flow cells were regenerated by injecting 3M magnesium chloride at a flow rate of 30 μl/min for 30 seconds.
as §3

cCD137-mFc-Avi = molecular target: T8, cCD137-mFc-Avi (cynomolgus monkey); assay: as above
T8 construct: 139 used; also called cyno CD137-mFc-Avi; recombinant cyno CD137
T8 chain: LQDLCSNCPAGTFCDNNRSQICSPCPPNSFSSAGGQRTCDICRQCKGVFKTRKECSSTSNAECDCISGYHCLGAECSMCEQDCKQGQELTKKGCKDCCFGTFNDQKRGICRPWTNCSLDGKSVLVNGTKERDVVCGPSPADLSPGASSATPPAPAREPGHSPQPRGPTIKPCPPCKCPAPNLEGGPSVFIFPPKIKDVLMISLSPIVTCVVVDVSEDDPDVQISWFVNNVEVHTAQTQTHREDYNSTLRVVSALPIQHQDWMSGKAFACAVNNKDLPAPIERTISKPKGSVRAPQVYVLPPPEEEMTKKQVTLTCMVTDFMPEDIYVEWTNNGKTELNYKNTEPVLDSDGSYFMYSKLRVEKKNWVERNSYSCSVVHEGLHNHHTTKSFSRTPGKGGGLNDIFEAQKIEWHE
Experimental: as §4, §3

[7] = molecular target: T2, human CD137 expressed on DO11.10 cells …; assay: cell-based or functional assay; remark: listed apart in the source
[8] = molecular target: T9, mouse CD137 expressed on DO11.10 cells (DO11.10-mCD137) (mouse, UniProt P20334 24-256); assay: flow cytometry on DO11.10 cells expressing the target
T9 construct: also called CD137 on mouse T cells
T9 sequence (P20334 24-256): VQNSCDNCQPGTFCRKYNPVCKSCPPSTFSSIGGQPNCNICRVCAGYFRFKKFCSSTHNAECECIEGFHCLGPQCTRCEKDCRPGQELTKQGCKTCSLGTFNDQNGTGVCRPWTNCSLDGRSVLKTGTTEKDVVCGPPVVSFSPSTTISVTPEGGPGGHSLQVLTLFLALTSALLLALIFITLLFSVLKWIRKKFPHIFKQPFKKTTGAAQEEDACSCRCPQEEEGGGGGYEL
Experimental: as §1, with “The binding affinity of the FS20m-232-91AA/Lob12.3 mAb² for cell-expressed mouse OX40 and CD137 was determined using flow cytometry. […] DO11.10-mOX40, DO11.10-mCD137, or HEK cell suspensions were prepared in PBS+2% BSA (Sigma, A7906) and seeded at 4×10⁶ cell/ml with 50 μl/well in V-bottomed 96-well plates (Costar, 3897). 50 μl” for “50 μl”, “volume 100 μl ) and incubated” for “volume 100 μl) and incubated”, “parameters) in GraphPad Prism Software” for “parameters) in Graph Pad Prism Software”

B1: FS20-22-49AA/FS30-5-37 (bispecific antibody, human IgG1, kappa, L234A L235A, V domains shown)
VH: EVQLLESGGGLVQPGGSLRLNCAASGFTFSSYAMSWVRQAPGKGLEWVSAISGSGGSTYYADSVKGRFTISRDNSKNTLYLQMNSLRAEDTAVYYCARSYDKYWGSSIYSGLDYWGQGTLVTVSS
VL: EIVLTQSPGTLSLSPGERATLSCRASQSVSSSYLAWYQQKPGQAPRLLIYGASSRATGIPDRFSGSGSGTDFTLTISRLEPEDFAVYYCQQYYSYYPVTFGQGTKVEIKR
notes: IgG1 with LALA; also called OX40/CD137 mAb^2
[1]
  EC50: 0.111 nM
[2]
  EC50: 0.258 nM
[3]
  EC50: 0.355 nM
[4]
  EC50: 0.201 nM
hOX40-mFc
  Kd: 0.385 nM
cOX40-mFc
  Kd: 1.63 nM
[5]
  EC50 of mIL-2 release, DO11.10-hCD137 assay, crosslinked: 13.4 nM
  Emax of mIL-2 release, DO11.10-hCD137 assay, crosslinked: 18100 pg/mL
[6]
  SEA assay (PBMC), hIL-2 max response, crosslinked: 30700 pg/mL
  SEA assay (PBMC), hIL-2 max response, no crosslinker: 29200 pg/mL
  SEA assay (PBMC), hIL-2 release EC50, crosslinked: 0.5 nM
  SEA assay (PBMC), hIL-2 release EC50, no crosslinker: 0.51 nM
hCD137-mFc-Avi
  Kd: 3.85 nM
cCD137-mFc-Avi
  Kd: 6.42 nM

B2: FS20-22-49AA/FS30-10-3 (bispecific antibody, human IgG1, kappa, L234A L235A, V domains shown)
VH: EVQLLESGGGLVQPGGSLRLSCAASGFTFSSYDMSWVRQAPGKGLEWVSDIDPTGSKTDYADSVKGRFTISRDNSKNTLYLQMNSLRAEDTAVYYCARDLNVYGFDYWGQGTLVTVSS
VL: EIVLTQSPGTLSLSPGERATLSCRASQSVSSSYLAWYQQKPGQAPRLLIYGASSRATGIPDRFSGSGSGTDFTLTISRLEPEDFAVYYCQQSYSYPVTFGQGTKVEIKR
notes: as for B1
[1]
  EC50: 0.0682 nM
[2]
  EC50: 0.12 nM
[3]
  EC50: 0.394 nM
[4]
  EC50: 0.175 nM
hOX40-mFc
  Kd: 0.285 nM
cOX40-mFc
  Kd: 1.11 nM
[5]
  EC50 of mIL-2 release, DO11.10-hCD137 assay, crosslinked: 6.1 nM
  Emax of mIL-2 release, DO11.10-hCD137 assay, crosslinked: 17000 pg/mL
[6]
  SEA assay (PBMC), hIL-2 max response, crosslinked: 33900 pg/mL
  SEA assay (PBMC), hIL-2 max response, no crosslinker: 34900 pg/mL
  SEA assay (PBMC), hIL-2 release EC50, crosslinked: 0.38 nM
  SEA assay (PBMC), hIL-2 release EC50, no crosslinker: 0.29 nM
hCD137-mFc-Avi
  Kd: 0.342 nM
cCD137-mFc-Avi
  Kd: 0.318 nM

B3: FS20-22-49AA/FS30-10-12 (bispecific antibody, human IgG1, kappa, L234A L235A, V domains shown)
VH: B2 VH with N101T
VL: B2 VL
notes: as for B1
[1]
  EC50: 0.107 nM
[2]
  EC50: 0.29 nM
[3]
  EC50: 0.368 nM
[4]
  EC50: 0.152 nM
hOX40-mFc
  Kd: 0.37 nM
cOX40-mFc
  Kd: 1.02 nM
[5]
  EC50 of mIL-2 release, DO11.10-hCD137 assay, crosslinked: 9.5 nM
  Emax of mIL-2 release, DO11.10-hCD137 assay, crosslinked: 17200 pg/mL
[6]
  SEA assay (PBMC), hIL-2 max response, crosslinked: 23700 pg/mL
  SEA assay (PBMC), hIL-2 max response, no crosslinker: 24900 pg/mL
  SEA assay (PBMC), hIL-2 release EC50, crosslinked: 2.33 nM
  SEA assay (PBMC), hIL-2 release EC50, no crosslinker: 1.36 nM
hCD137-mFc-Avi
  Kd: 0.255 nM
cCD137-mFc-Avi
  Kd: 7.24 nM

B4: G1AA/FS30-10-16 (antibody, human IgG1, kappa, L234A L235A, V domains shown)
VH: B2 VH with N101L
VL: B2 VL
[7]
  CD8+ T cell activation assay, hIL-2 release EC50, crosslinked: 3.88 nM

B5: FS20m-232-91AA/HEL D1.3 (antibody, V domains shown)
VH: QVQLQESGPGLVRPSQTLSLTCTVSGSTFSGYGVNWVRQPPGRGLEWIGMIWGDGNTDYNSALKSRVTMLVDTSKNQFSLRLSSVTAADTAVYYCARERDYRLDYWGQGSLVTVSS
VL: DIQMTQSPASLSASVGETVTITCRASGNIHNYLAWYQQKQGKSPQLLVYNAKTLADGVPSRFSGSGSGTQYSLKINSLQPEDFGSYYCQHFWSTPRTFGGGTKLEIKR
notes: also called OX40/HEL mock mAb^2
[8]
  binding result: no binding
